A short description of the data set: soluble fraction after stress (log2 fold change); higher = more stays soluble; pooled small domains, quantitative proteomics. As to conditions: stress: pH 4. A digest of the protocol:
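Following acid stress at pH 4, the amount of each small protein domain still soluble was measured in pooled custom libraries by high-throughput quantitative proteomics. Its fold change, on a log2 scale, is higher when more of the domain stayed soluble. This fold change is taken as a measure of aggregation propensity.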
Consider “HMTSFDVMLKSAGANKLAVVKLVKELTGLGLKEAKDIVDAAPSKVKEGVSKEEAEELQKQLTGAGAEVEL”, for which the “soluble fraction (log2)” value was 0.309.

For the sequence “HMTSHYTVLGVKETDTIEMIRTHYRKLILQFHPDKNQHLTEEERKKLEVKVLQIREAYEKIKKEK”, the “soluble fraction (log2)” value is -0.816.

For the sequence “HMTSIISLAKARSIALQKVPGATSKNIHLSLDDEDDKQVYEGEIKYKQMEYVFEIDAKTGTFLKWTSERD”, the “soluble fraction (log2)” value was determined as 0.185.

As to “HMTSKTLSAVEGEGLRLDKFLSNQLPELSRTKIQKMINDGLVFVNNTEAKASLILDGSEFIAYTVPD”, the “soluble fraction (log2)” value was -0.0789.

On to “HMTSLAEQAYRHIRDKLSNGAFVPGEQLVNRVLATEIGVSVIPVREAINRLATEGLVKHVPGSGAFVRQ”, for which the “soluble fraction (log2)” value stood at 0.197.

As to “HMTSLYDILGIAKTADSQTIKTAFKKKALLYHPDKNNGNLKKEEIFKKISTAYQILSDPKSRANYDLSIA”, the “soluble fraction (log2)” value is 0.22.

Turning to “HMTSMNNTEELIDMANKIIDNNPNMVLKYKEGRNVLDFFIGQVMKETKGRANPSATSKIFKDLLEK”, the “soluble fraction (log2)” value was 0.171.

On to “HMTSNKTVPYSELKGLISTGKIEYVGIGNTQIRAVSKSGAGIVTYTARRVIPDDTLIPELEKNGIAYGGI”, for which the “soluble fraction (log2)” value was determined as 0.112.

For the sequence “HMTSNSLNLKDEISAFLTKNAGISYSAERIAHALNMDNADQFTPIIQTLAQLEREKKVRVTDKGEFEAVIK”, the “soluble fraction (log2)” value turned out to be 0.229.

As to “HMTSSKISFIDPVNGGKVSVSLENSTLEKLQNRFGVNSVVRNEAGDVELKDKAQEFVAGWFADIAYTRG”, the “soluble fraction (log2)” value was -0.89.

With “HMTTAGTAIVQTGNSGKLNLREQAYANAGILGRYSNGTAVTVLQKGAAWSYVEVKGQKGYMMSKFLKFTS”, the “soluble fraction (log2)” value is -0.341.

On to “HMTTEIVRMKKDVKIGQEITAKDIEVVEVGAYNLPDEVIRSSEEVVGKYVSSELLKGEYVLPSKISDTP”, for which the “soluble fraction (log2)” value was -0.53.

In the case of “HMTTEPYILTRMPDGSIKAEPNLNYKGPEQKPGSNIQVKGADGRIYLVPIDGQGKPGKPQLVD”, the “soluble fraction (log2)” value stood at 0.127.

Turning to “HMTTGLETYPGKIAVVSDDFIDGEGRVQLDGALWRAKTKDHQQLKQGDHVTIVNVKGLTLTVMPDD”, the “soluble fraction (log2)” value is -0.0405.

As to “HMTTGREGLIGAVGTVRQAIAPEGYVFVEGELWRAKSPAGPLEPGTTVRVIAIDGLTLTVMPAE”, the “soluble fraction (log2)” value is -0.564.

Consider “HMTTGTVKWFNDAKGFGFITPDDRSVDVFVHYSNIVGQSGRRTLMEGERVEYEAIEGPKGPQATDVARA”, for which the “soluble fraction (log2)” value is -1.06.

For the sequence “HMTTIFDNINGELRRRHLTQQDLAKTIEIDRRTWSKWQDKNDMPASVLLQIAKWLNVTLDYLTRD”, the “soluble fraction (log2)” value came out at 0.0559.

Consider “HMTTIKLTQEDVEKIKSLPKRTFLIGNLQQTGLYDEKTRRFYYLDANGEWNGRLAIINTPPPPPPPP”, for which the “soluble fraction (log2)” value was -0.0951.

Take “HMTTKYMVLVNWVKEKVRTNELKTGEKLYSEHEFSRMFHMSRQTVRHGISILERENIVERRQGSGTFIKDA”: the “soluble fraction (log2)” value was -0.223.

With “HMTTKYVAVHESKDGYWTIASKPSSKEDAEAMLGGTPKNEVGKVVTLEEAKAHKKTLGEEYLYE”, the “soluble fraction (log2)” value is ≥ 0.43.

Turning to “HMTTMTTGQRIAAKRKEQGLSQENLGEQLGVSRQAIYKWESDASLPDIDKLIALSRLFGVSTDYLLLE”, the “soluble fraction (log2)” value is -1.68.

Turning to “HMTTQIPEEVQKRVNQFYEALDEEDYGEAKQILEELEKATAPDHPTLIQMRTRYEFDTMELR”, the “soluble fraction (log2)” value was -1.1.

Turning to “HMTTTPAERQRTILRSLNRVDPVSVDALARLTGVSVVTIRRDLSDLASRDLIRRVHGGALLPTR”, the “soluble fraction (log2)” value worked out at 0.339.

On to “HMTTYSVDLGDIRAVADSDGKLVELTLHAAVTTHYSHSELADRLNLAFTALREEAQADYETRY”, for which the “soluble fraction (log2)” value is -0.0597.

Regarding “HMTTYTGVVTGSGVNVRSGAGTSYPVVGSKTMGDVVTITETVSADGMIWGKIDIGWISMNYVRM”, the “soluble fraction (log2)” value was -0.434.

With “HMTVAQEIEARRATIRSSDPAEMARFIRWLIMEGHTEPAADELKKYAENFPEASATTKQLQALLAAR”, the “soluble fraction (log2)” value was determined as 0.147.

Take “HMTVDIADALRVLGLSDAPDWSDVRAAHRRAIVRTHPDAGGSAGDAARVNQAFDLLRKISGNGERPIPG”: the “soluble fraction (log2)” value was 0.0966.

As for “HMTVDTSELEEMIDDLIKEHPNEWERYSSGEKKVQGFFVGQVMKATSGQADGKAINQILSKRVKS”, the “soluble fraction (log2)” value is 0.000391.

On to “HMTVDYDKFTKDTVVQHNKFGKGVIIMTSGDGEDKIASIAFQGLGVKRFSLAIAASNLKILGKVNED”, for which the “soluble fraction (log2)” value is -0.195.

Regarding “HMTVEVFQSLVQTFREMSPRKAASILEELKRDLAVEILLHMPEDGVAAILARMDPARAARLTEQLALEKD”, the “soluble fraction (log2)” value was -0.867.

As to “HMTVGEAHLEEVYLKVLKQVEEQGTALIRTTDVETGRPAAGIRRRYMRGTLPDEWVAKFEALPGWTWAPG”, the “soluble fraction (log2)” value was -0.952.

Regarding “HMTVGEKIQKYRKDLDLSQEELGQKLLVSRQTISLWEKDQTVPTIDNLIRLREIFGVSVDEILGF”, the “soluble fraction (log2)” value was -1.69.

In the case of “HMTVIARQIPPLVPRMLDGLEAFIKLDVPFEEKERLARVQMLRSSLDRDNLDTAEIFRAVLEAYNIELQY”, the “soluble fraction (log2)” value stood at 0.195.

As for “HMTVKKEIAKVKPTPLGWLRVRETPSLNGAEITKVNTGESYDVLDKETGWIKIKVSETVEGWVSDAYIELS”, the “soluble fraction (log2)” value was determined as 0.124.

For the sequence “HMTVLPTENDAKALVGLNEDEAVKIIEGNGWTYRIGSRDGEQFMLTEDYSTSRLTLGIEKSIVVTATI”, the “soluble fraction (log2)” value was -0.56.

Consider “HMTVLVPNLTGKTLLEAEILLDQAGLKKGDVYSESNKNVPKDHIIRQKPAPNTKIQKGATIDIYRSLGPE”, for which the “soluble fraction (log2)” value is -0.0793.

In the case of “HMTVNLPPKQKAAILLMSLPPEVSAQLFKELGPDEVHAITLEISKLPPISPDVRAQVIDEFLHSS”, the “soluble fraction (log2)” value was -0.226.

With “HMTVSIGSVIARERRLRGDTQQELAERLGVSKAAVSKWEVGQSIPDVTLLPRIAAYFSLTLDEL”, the “soluble fraction (log2)” value was -0.276.

For the sequence “HMTVVLPGESLTVNIIQEGKELGQGVGYLDDGTMVVIEDGRRYIDQTIEVTVTRVLQTVAGRMIFAQLT”, the “soluble fraction (log2)” value is -0.886.

As for “HMTWDSFIGYTVTDVQKGYLGEITDVDETTINVLLRVDHKGEELLIPAVEELITEADHEARSLTVSLPEGL”, the “soluble fraction (log2)” value is -2.11.

With “HMTYFIADLIGLQVYTDSGELLGKVDDIYNSGSADIYVVKDELGKQILLPGIKDVIKQIDVDNEKIIVHLI”, the “soluble fraction (log2)” value was -1.62.

In the case of “HMTYIQSNLKFLRNKMNISQEELAKRLFVTHQTVSNHENGKSQPNFEMIEKYASFFNVPFEDLIHKDLSL”, the “soluble fraction (log2)” value was -0.309.

As for “HMTYNIPEHYQTIDVKEYVRKLVSDGDSDQIGRVEMELTEFETRNLFPVLKVLIYIIDTMRK”, the “soluble fraction (log2)” value is -1.73.

In the case of “HMTYQTVRYGSTGSAVRQLQSALNQKGYQLSEDGIFGAKTRAAVRDYQKKNGLLLDGIAGSQTWNHLMS”, the “soluble fraction (log2)” value was ≥ 0.43.

In the case of “HMTYSSESVRYRIKSLIDNETIDEILSDDKIVNILKSQGIDVARRTVAKYREAMGLASSIQRRREKKSA”, the “soluble fraction (log2)” value was -0.0241.

In the case of “HMVAGGTVSRKLSIETGLPKRKSLIGSWLDQNSVWHNIISVRHRNGYGDGVNYGFYLRSLLTSEGNLAW”, the “soluble fraction (log2)” value amounted to 0.0466.

For the sequence “HMVAGHLQTKKGYYYIVLNMRTDTGARKTKWIATGIPEGGKKNLKQAEELLAKTRYTYEDMVI”, the “soluble fraction (log2)” value is 0.0939.

Consider “HMVAPKTEEQQKMFLESIVTKRQAETLIEKYPNIVQDIIDGTDNVDLANLKGIGEHTYNLIKEKVLSNY”, for which the “soluble fraction (log2)” value was -0.159.

With “HMVAPPILNITTHIFAEEADLRMVMINGVTRREGDSLGENHRLLEITERGLILIFHNKQYTLDV”, the “soluble fraction (log2)” value is -2.1.

On to “HMVAQEVPYSTFVMRLDRNEVDAVKIIDGNEIEGTFKSPNGDLVQFKTLIPYQDTELMPLLKQKGVRISGS”, for which the “soluble fraction (log2)” value was ≥ 0.43.

Take “HMVARPVLQIGSTGADVTAIQARLGVSQTGYFGVLTAAAVTNFQRSNGIAASGKVGATTWAKLMQSA”: the “soluble fraction (log2)” value was 0.316.

With “HMVAVSQEEATKMALERVSGASAQDIRIQLEFDDGIQKYEGDIIYNGREYEFEIDANTGTFLEWSEERA”, the “soluble fraction (log2)” value is ≥ 0.43.

“HMVDETDVPTFTDMTLEEAQNEAKQRNLKLEITESPSDKEKDTILEQDPEPGKTVASGSTVKLTVSNGEE”: the “soluble fraction (log2)” value was 0.138.

“HMVDFHAAYSILRIAPGASWQEIQAAYEKLNDAWREDRYPQVPFWNEKAAFKRREVEQAYEKLRKFHALRH”: the “soluble fraction (log2)” value is 0.0778.

As for “HMVDFVNVVVPVKANYGGEAVVEFLDERLSEFGTEGIYRIELQGETMENPSPDYSQLKAKYHISEIVDRT”, the “soluble fraction (log2)” value was -0.375.

As to “HMVDKDFKPLYASLERLDSTSIIEILDSNRIDYRIDQRSGALLVDADQIHQARLSLASAGMPA”, the “soluble fraction (log2)” value was -0.844.

Regarding “HMVDLANIDPIASSIKLNGAEADASFNTLEDRRVSVSGSFEENKNYTMEYTFKDYAGGSVTGTLDFKTLA”, the “soluble fraction (log2)” value came out at 0.129.

For “HMVDLAPTEEIIKNLPNNSRSLLIPTLQKIQNAYRYLPSPAMELLSEFLNVTRAEIYGVISFYPSLL”, the “soluble fraction (log2)” value was found to be 0.129.

Regarding “HMVDLLDETLIEFYAFANNLIKDLETNSEKYGGMSQFEKELIFNEQITQYQRKLKIDLQDEVG”, the “soluble fraction (log2)” value was -1.39.

Regarding “HMVDPRLRSLTPQERRILEHIAEGLTNRQIAEDMFLAEKTVKNYVTSILDKLGMDSRTQAAVYAATHPT”, the “soluble fraction (log2)” value is -0.438.

Take “HMVDSTDLIPLLIKVSREKQGNKKLNWGEWLKIPENIYLKQINENIARKVFEDTNDLIDEAVNYINRKRRN”: the “soluble fraction (log2)” value is -0.558.

Turning to “HMVDTEVFSRLLRKVLAGDVTSAIRILEELIVGGRELSQFVGDFTWYMRNLLLVKTSDNPEEA”, the “soluble fraction (log2)” value was -0.116.

Take “HMVDYYEILGVSPDASRKDIENAWRKKMREAHPDMGGSEDKAQLLNEAHKVLSDESARAEYDASR”: the “soluble fraction (log2)” value was -0.0915.

As to “HMVELPDLIGKSKRLAFTQLEISGLKIGKIIYEPDLAKDAVLKILYNGKIVKAGEQLPRFATVDLVLG”, the “soluble fraction (log2)” value was -0.0904.

As to “HMVEMIGLQMVGKSGIASTVLRPSGKVRIDGVVYDAVSEDGFIEKGQAVKVLRYETGQVYVEKL”, the “soluble fraction (log2)” value was found to be 0.0132.

As to “HMVEPIEESISQLSLLLQSLYEDGKSEVSFEELIRSDRSRVSLFLALLFMAQRGNVYLEQEELFGDLRVKN”, the “soluble fraction (log2)” value is -0.4.

On to “HMVEREYRLEVPPEAEGKRLDQFLVNQPVQLSRSQVQHLIQNGLVLVNAKTRRSSYRVHTGDIIEMQVPA”, for which the “soluble fraction (log2)” value is -0.088.

As to “HMVERQVTVPNLTGLGVADAQRLAQSMELDIEVLGEQESTDARPGAVLQQTPGAGTRAAAGSVVSVLV”, the “soluble fraction (log2)” value was -0.179.

Consider “HMVEVPEQLRDLLERSIEDLAELSVRSRNSLQKENIQTLGDLVQRTEEEMLGIENFGKKSLTEIAAFL”, for which the “soluble fraction (log2)” value is -0.92.
